Values of other authors in publication PMC12571840.

Key:
[1] = biological target: CRHR1 (Homo sapiens) (UniProt P34998)
[2] = biological target: CRHR2 (Homo sapiens) (UniProt Q13324)
Sequence of UniProt Q13324 (Q13324 20-411): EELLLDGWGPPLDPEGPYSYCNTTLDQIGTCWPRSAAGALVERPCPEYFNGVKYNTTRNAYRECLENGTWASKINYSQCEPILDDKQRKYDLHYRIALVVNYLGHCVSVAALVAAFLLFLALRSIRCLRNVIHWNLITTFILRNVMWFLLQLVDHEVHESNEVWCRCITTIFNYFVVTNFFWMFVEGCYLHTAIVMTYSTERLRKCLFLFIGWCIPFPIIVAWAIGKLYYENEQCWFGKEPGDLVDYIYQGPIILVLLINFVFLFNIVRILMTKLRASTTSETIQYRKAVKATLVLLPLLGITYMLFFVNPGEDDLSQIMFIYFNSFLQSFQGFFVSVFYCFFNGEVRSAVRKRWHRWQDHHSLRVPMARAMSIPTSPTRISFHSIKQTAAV

Sequence of UniProt P34998 (P34998 24-415): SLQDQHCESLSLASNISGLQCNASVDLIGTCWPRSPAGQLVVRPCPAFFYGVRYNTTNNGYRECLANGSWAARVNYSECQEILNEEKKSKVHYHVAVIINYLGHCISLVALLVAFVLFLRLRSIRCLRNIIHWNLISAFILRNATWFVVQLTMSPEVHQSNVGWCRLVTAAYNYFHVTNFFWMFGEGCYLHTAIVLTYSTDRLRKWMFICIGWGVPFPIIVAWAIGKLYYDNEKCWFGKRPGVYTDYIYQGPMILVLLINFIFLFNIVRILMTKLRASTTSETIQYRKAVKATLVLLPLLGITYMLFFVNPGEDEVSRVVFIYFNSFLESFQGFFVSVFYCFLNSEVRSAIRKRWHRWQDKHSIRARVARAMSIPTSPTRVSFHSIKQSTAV

## CRH (from UniProt P06850)
[1]
  Ki: 0.95 nM
[2]
  Ki: 13 nM
